Results taken from the nanobody polyreactivity screen of Harvey et al. (2022).

Assay: yeast display, Sf9 membrane polyspecificity reagent, FACS + sequencing; frameworks hold sequencing errors
How it was run: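 Galactose induction of a Saccharomyces cerevisiae BJ5465 synthetic nanobody display library ran 36–48 hours. The cells were then stained for 1 hour at 4 °C with 10% biotinylated, detergent-solubilized Sf9 membrane reagent, pulled down on streptavidin microbeads and FACS-sorted into low and high (top ~1%) gates on expression and reagent-binding fluorescence. Labels for polyreactivity follow the gate of origin.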

Sequence | polyreactivity (PSR sort gate)
QGQLVESGGGLVQAGGSLRLSCAASGSIFVLNAMGWYRQAPGKERELVAAISGGSTNYADSVKGRFTISRDNAKNTVYLQMNSLKPEDTAVYYCAARARRRYYYWGQGTQVTVSS | high polyreactivity
QVQLVESGGGLVQAGGSLRLSCAASGSTFYAYAMGWYRQAPGKERELVAAINGSGGSTNYADSVKGRFTISRDNAKHTDYLQMNSQKPEDTAVYYCAADWSRRLYDYWGQGTQVTVSS | low polyreactivity
QVQLQESAGGLVQAGGSLSLSCAASGSISRYYDMGWYRQAPGKEREFVAGISGGASTYYADSVKGRFTISRDNAKNTVYLQMNSLKPEDTAVYYCAADTGVYQYHSYWGQGTQVTVSS | low polyreactivity
QVQLVESGGGLVQAGGSLRLSCAASGSTFDIYAMGWYRQAPGNERELVAAISVSGGSTYYADSVKGRFTIARDNAKNTVDLQMNSLKPEDTAVYYCAAEAYTRFYQQFDYWGQGTQVTVSS | high polyreactivity
QVQLVESGGGLVQAGGSLRLSCAASGGTFSRYVMGWYRQAPGKERELVAAITRSGSTNYADSVKGRFTISRDNAKNTVYLQMNSLKPEDTAVYYCATDKRGRIGGTFDYWGQGTQVTVSS | low polyreactivity
QVQLVESGGGLVQAGGSLRLSCAASGSIFGWYAMGWYRQAPGKERELVAGISWSGANTYYADSVKGRFTISRDNAKNTVYLQMNSLKPEDTAVYYCAAGPGLYYSRRYGYWGQGTQVTVSS | high polyreactivity
QVQLVESGGGLVQAGGSLRLSCAASGLIFRYNTMGWYRQAPGKERELVAAITSSGGSTYYADSVKGRFTISRDNAKNTVYLQMNSLKPEDTAVYYCAKRSFYFSDYDYWGQGTQVTVSS | high polyreactivity
QVQLVESGGGLVQAGGSLRLSCAASGSTFPKYAMGWYRQAPGKERELVASISVTTGSTYYADSVKGRFTISRDNAKNTVYLQMNSVKPEDTAVYYCAARRGWGDDYWGQGTQVTVSS | high polyreactivity
QVQLVESGGGLVQAGGSLRLSCAASGSIFVQYDMGWYRQAPGKERELVAAITSGSSTNYADSVKGRFTISRDNAKNTVYLQMNSLKPEDTAVYYCAASTPYSYRYDYWGQGTQVTVSS | low polyreactivity
QVQLVESGGGLVQAGGSLRLSCAASGRTFRNYAMGWYRQAPGKERELVAAISSGGRTNYADSVKGRFTISRDNAKNTVYLQMNSLKPEDTADYYCAVRRGAFSTYPGYNYWGQGTQVTVSS | high polyreactivity
QVQLVESGGGLVQAGGSLRLICADSGFILPRNAMGWYRQAPGKERELVAAIRSSGGTTYYADSVKGRFTISRDIAKNTVYLQMNSLKPEDTAVYYCAAVTTSKFNYWGQGTQVTVSS | low polyreactivity
QVQLVESGGGLVQAGGSLRLSCAASGRTFYIYAMGWYRQAPGKERELVAAITYSSGTTYYADSVKGRFTISRDNAKNTVYLQMNSLKPEDTAVYYCAADVGFNQFDYWGQGTQVTVSS | low polyreactivity
QVQLVESGGGLVQAGGSLRLSCAASGIFDDNAMGWYRQAPGKEREFVAAITISDGTTYYADSVKGRFTISRDNAKNTVDLQMNSLKPEDTAVYYCAADATYFFVYPSVDWQPDIMGYWGQGTQVTVSS | low polyreactivity
QVQLVESGVGLVQAGGSLRLSCAASGLIFGYYAMGRNRQAPGKERELVAAITRGGGRTYYADSVKGRFTISRDNAKNTVYLQMNSLKPEDTAVYYCNAVRRVSSAGEFDYWGQGTQVTVSS | high polyreactivity
QVQLVESGGGLVQAGGSLRLSCAASGSILKFNAMGWYRQAPGKERELVAAITRGTNTYYADSVKGRFTISRDNAKNTVYLQMNSLKPEDSAVYYCAARQPYNAFGYFYWGQGTQVTVSS | low polyreactivity
QVQLVESGGGLVQAGGSLRLSCDASGFTFRVYAMGWYRQAPGKEREFVASIRSNDGRTYYADSVKGRFTISRDNAKNTVYLQLNSLKPEDTAVYYCAARYSPRGKRYDYWGQGTQVTVSS | high polyreactivity
QVQLVESGGGLVQAGGSLRLSCAASGSIFKYNAMGWYRQAPGKERELVAAITNGGSTYADSVKGRFTISRDNAKNTVYLQMNSLKPEDTAVYYCNFYGQDGVNVTYDYWGQGTQVTVSS | low polyreactivity
QVQLVESGGGLVQAGGSLRLSCAASGSIFYDNAMGWYRQAPGKERELVAAIRGRGGSTYYADSVKGRFTISRDNAKNTVYLQMNSLKPVDTAVYYCAAERPIAVVRYYTYYYWGQGTQVTVSS | high polyreactivity
QVQLVESGGGLVQAGGSLRLSCAASGSIFKYNTMGWYRQAPGKERELVAAIRYSGGRTYYADSVKGRFTISRDYAKNTVYLQMNSLKPEDTAVYYCAAGSIQYRPTYTGDYWGQGTQVTVSS | high polyreactivity
QVQLVESGGGLVQAGGSLRLSCAASGRIFSYYAMGWYRQAPGKERELVATINWRADTYYADSVKGRFTISRDNAKKTVYLQMNSLKPEDSAVYYCAKRPRPTDKYDYWGQGTQVTVSS | high polyreactivity
QVQLVQSGGGLVQAGGSLRLSCAASGTTFRIYAMGWYRQAPGKEREFVAAISDRGGRTYYADSVKGRFTISRDNAKNTVYLQMNSLKPEDTAVYYCAAVKLLSSAPGDDGKMNYWGQGTQVTVSS | low polyreactivity
QVQLVESGGGLVQAGGSLRLSCAASGRILYGNAMGWYRQAPGKERELVAAIDTSGGSTYYADSVKGRFTISRDNAKNTVYLQMNSLKPEDTAVYYCAVRAYREFLPIVYKWWWERDHWGQGTQVTVSS | low polyreactivity

Sequence | polyreactivity (PSR sort gate)
QVQLVESGGGLVQAGGSLRLSCDASGGIFYGYAMGWYRQAPGKERELVAAISDSGGSTYYSDSVKGRFTITRDNAKNNVYLQMNSLKPEDTAVYYCATDAPVGGYVSEGDYWGQGTQVTVSS | low polyreactivity
QVQLVESGGGLVQAGGSLRLSCAASGSIFLYNAMGWYRQAPGKERELVAAISKSGGSTYYADSVKGRFTISRDNAKNTVYLQMNSLKPEDTAVYYCAAGYGRRIRYGSEYDYWGQGTLVTVSS | low polyreactivity
QVQLVESGGGLVQAGGSLRLSCAATGRTFPAYAMGWYRQAPGKERELVAAITINGGSTYYADSVKGRFTISRDNAKNSVYLQMNSLKPEDTAVYYCAAYYASPRHGFWGQGTQVTVSS | low polyreactivity
QVQLVESGGGLVQAGGSLRLSCASSGIIFSYNAMGWSRQAPGKERELVAAISSGGRTYYADSVKGRFTISRDNAKNTVYLQMKSLKPEDTAVYYCATTSPHRLYGYYYDYWGQGTQVTVSS | high polyreactivity
QVQLVESGGGLVQAGGSLRLSCAASARNFYANVMGWYRQAPGKEREFVAAIRWSGGRTYYADSVKGRFTISRDNAKNTVYLQMNSLKPEDTAVYYCAADPWDYISYYIYDYWGQGTQVTVSS | low polyreactivity
QVQLVESGGGLVQAGGSLRLSWAASGFTFGVNTMGWYRQAPGKERELVADISSGGRTNYADSVKGRFTISRDNAKNTVYLQMNRLKPEDTAVYYCAADNYSGTETDLTTLLDYWGQGTQVSVSS | low polyreactivity
QVQLVETGGGLVQARGSLRLSSAASGIIFYRYAMGWYRQAPGKETDFVAAISWSGGSTTYADSVKGRFTISRDNAKNTVYLQMNSLKPVDTAVYYCNAERKYWSLWGPAYDYWGQGTQVTVSS | high polyreactivity
QVQLVESGGGLVQAGGRLRLSCAASGSTFKRYVMRLYRQAPGKERELVAAITWSGTRTYYADSVKGRFTISRDNAKNTVYLQMNSLKPEDTAVYYSAAVADRYPYSGYNYYSWGQGTQVTVSS | high polyreactivity
LVQLQERVGVLVQAGGRLRLNCAASGTISPGGYMGWYRQAPGKELELVASINVGGSTNYADSVKGRFTISRDNAKNTVYLQMNRLKPEDNAVYYCAVWGRNRLQLSYWGQGTQVTVSS | low polyreactivity
QVQLVESGGGLVQAGGSLRLSCAASGRTIGTYAMGWYRQAPGTERELVAAIRSNAGSTYYADSVKGRFTISRDNGKNTVYLQMNSLKPEDTAVYYCAKSYRSSRRYNYWGQGTQVTVSS | high polyreactivity
QVQIVDSGGGLVQAGGSLRLSCAASGLIIGPYAMGWYRQAPGKERELVAAITSGTTTYYADSVKGRFTISRDNAKNTVYLQMNSLKPEDTAVYYCAAYWPVNSQPIQIGYLYDYWGQGTQVTVSS | low polyreactivity
QVQLVESGGGLVQAGGSLRLSCAASGITFRRNAMGWYRQAPGKERELVARITGSGGSTYYADSVKGRFTISRDNAKNTVYLQMNSLKPEATAVYYCATERYGKYAMDYWGQGTQVTVSS | high polyreactivity
QVQLVESGGGLVQAGGSLRLSCAASGITFGVYARGWYRQAPGKEREFVADIDRTRGSTYADSVKGRFTISRDNAMNTVYLQMNSLKPEDTAVYYCAAGWGFRFYYWYWGQGTHVTVSS | high polyreactivity
QVQLVESGGGLVQAGGSLRLSCAASGSTLYYNAMGWYRQAPGKERELVAAITSGGSTSYADSVKGRFTISRDNAKNTVYLQMNSLKPEDTAVSSCAAVFYRRFDYWGQGTQVTVSS | low polyreactivity
QVQLVESGGGLVQAGGSLRLSCAASGRIFGYNAMGWYRQAPGKERELVAAISGSGGSTYYADSVKGRFTISRDNAKNTVYLQMNSLKPEDTAVYYCATRHGRYPYTLDYWGQGTQVTVSS | low polyreactivity
QVQLVESGGGLVQAGGSLRLSCAASGGSFYPYAMGWYRQAPGKERELLAAISWSGDITYYADSVKGRFTISRDNAKNTVYLLINSLKPEDTAVYYCAAGRVVDKDPSYFREGDYWGQGTQVTVSS | low polyreactivity
HVQLVESGGGIVQAGGSLRLSCAASGLIFSYYAMGWYRQAPGKERELVAAINSGGSTYYADSVKGRFTISRDNAKNTVYLQMNSLKPEDSAVYYCAAHLWYHGHLFDYWGQGTQVTVSS | high polyreactivity
QVQLVESGGGLVQAGGSLRLSCAASGSIFSVYAMGWYRQAPGKERELVASITRSGGRTYYADSVKGRFTISRDNPKNTVYLQMNSLKPEDTAVYYCAADRLGSISGYDYWGQGTQVTVSS | high polyreactivity
QVQLVESGGGLVQAGGSLRLSCAASGFIFWFNALGWYRQAPGKERELVATISWSDTSTYYADSVKGRFTISRDNAKNTVYLQMNSLKPEDTAVYYCATDGRETWLPEYYWGQGTQVTVSS | low polyreactivity
QVQLVESGGGLDQAGGSLRLICAASGFTITNNAMGWYRQAPGKEREFVAAISASGGSTYYADSVKGRFTISRDNAKNTVYLQMNSLKPEDTAVYYCAVEPVYIVSEVLFDYWGQGTEVTVSS | low polyreactivity
QVQLVESGGGLVQAGGSLRLSCAASGSTFAYYAMGWYRQAPGKERELVAAITIDGRTSYADSVKGRFTISRDNAKNTVYLQMNSLKAEDTAVYYCAADSSAWLYDYWGQGTQVTVSS | low polyreactivity
